Conditions in all cases: both partners purified
Assay [1] has as its target T1, HD-PTP Bro1-CC-PRR (residues 1-738) (UniProt Q9H3S7 1-738).
T1 construct: His Domain Protein Tyrosine Phosphatase (HD-PTP), Bro1 and coiled-coil domains plus the proximal region of the PRR (714-738), residues 1-738; cloned into pET28a (NdeI/XhoI); immobilised by the His6 tag on the HTE chip; also called HD-PTP_(Bro1-CC-PRR (+tag)); source: E. coli BL-21(DE3), purified (Nickel beads, MonoQ anion exchange, Superdex200 SEC); not shown: His6, N-terminal, kept
T1 sequence (looked up): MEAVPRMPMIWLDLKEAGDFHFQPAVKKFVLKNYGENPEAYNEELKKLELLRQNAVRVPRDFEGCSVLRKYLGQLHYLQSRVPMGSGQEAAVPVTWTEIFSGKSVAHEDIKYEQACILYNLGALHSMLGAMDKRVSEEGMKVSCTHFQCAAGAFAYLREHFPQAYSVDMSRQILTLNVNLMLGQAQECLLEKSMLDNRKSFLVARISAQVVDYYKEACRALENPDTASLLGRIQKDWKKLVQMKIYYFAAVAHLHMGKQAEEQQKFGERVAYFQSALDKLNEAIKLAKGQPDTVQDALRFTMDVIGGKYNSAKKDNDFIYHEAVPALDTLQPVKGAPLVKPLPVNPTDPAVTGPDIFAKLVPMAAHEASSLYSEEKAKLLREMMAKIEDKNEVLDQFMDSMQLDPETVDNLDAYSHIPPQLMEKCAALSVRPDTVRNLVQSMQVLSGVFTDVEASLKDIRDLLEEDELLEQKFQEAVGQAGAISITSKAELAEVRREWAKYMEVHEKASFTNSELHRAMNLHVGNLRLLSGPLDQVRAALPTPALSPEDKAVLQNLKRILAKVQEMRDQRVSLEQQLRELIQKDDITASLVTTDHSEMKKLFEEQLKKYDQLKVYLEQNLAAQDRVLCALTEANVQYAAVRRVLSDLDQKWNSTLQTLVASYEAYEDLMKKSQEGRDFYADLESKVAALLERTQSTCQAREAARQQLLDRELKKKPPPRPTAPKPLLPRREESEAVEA
The assay is described as follows: SPR; ProteOn XPR36; His6-tagged HD-PTP Bro1-CC-PRR immobilised on an HTE chip (5000-8000 RU); synthetic peptides as analytes; equilibrium binding model; 25 °C; 10 mM HEPES pH 7.4, 150 mM NaCl, 0.05% Tween-20.

In assay [2] the target is T2, HD-PTP Bro1 domain (residues 1-361) (UniProt Q9H3S7 1-361).
T2 construct: His Domain Protein Tyrosine Phosphatase (HD-PTP), Bro1 domain, residues 1-361; cloned into pNIC-28a-Bsa4; No tag cleavage is described for the His6-tagged proteins; The vector pNIC28-Bsa4 probably adds an N-terminal His6 tag with a TEV site (surmise); also called His Domain Protein Tyrosine Phosphatase Bro1; source: E. coli BL-21(DE3), purified (Nickel beads, MonoQ anion exchange, Superdex200 SEC)
T2 sequence (looked up): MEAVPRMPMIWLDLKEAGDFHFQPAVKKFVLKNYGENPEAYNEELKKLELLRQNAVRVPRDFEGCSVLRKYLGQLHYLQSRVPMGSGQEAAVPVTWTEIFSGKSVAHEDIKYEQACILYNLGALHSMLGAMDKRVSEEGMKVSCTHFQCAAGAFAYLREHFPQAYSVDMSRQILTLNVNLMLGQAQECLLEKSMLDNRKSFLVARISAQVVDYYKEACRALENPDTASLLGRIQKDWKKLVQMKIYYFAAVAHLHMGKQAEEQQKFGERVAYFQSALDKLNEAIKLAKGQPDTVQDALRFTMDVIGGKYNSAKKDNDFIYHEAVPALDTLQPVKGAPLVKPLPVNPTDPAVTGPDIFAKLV
In words: SPR; ProteOn XPR36; GST-FL-CHMP4B captured on a GLC chip derivatised with anti-GST antibody (3000-4000 RU); HD-PTP proteins as analytes; equilibrium binding model; 25 °C; 10 mM HEPES pH 7.4, 150 mM NaCl, 0.05% Tween-20.

For assay [3], the target named is T1, HD-PTP Bro1-CC-PRR (residues 1-738). The assay is described as above.

B1: UBAP1 peptide (residues 261-280) (peptide)
peptide: SNIKSLSFPKLDSDDSNQKT
notes: UBAP1 (ESCRT-I subunit), central region, residues 261-280; also called central region of UBAP1; source: synthetic peptide (Generon Ltd, UK)
Take B1: the Kd in assay [1] is 57.5 ± 3.1 µM.

B2: CHMP4B peptide (residues 205-224) (peptide)
peptide: KKKEEEDDDMKELENWAGSM
notes: CHMP4B, C-terminal residues 205-224; also called peptide from the C-terminus of CHMP4B; source: synthetic peptide (Generon Ltd, UK)
B2 returned a Kd in assay [1] of 30.9 ± 0.2 µM.

B3: GST-tagged full length CHMP4B (natural protein, UniProt Q9H444 1-224, looked up)
chain: MSVFGKLFGAGGGKAGKGGPTPQEAIQRLRDTEEMLSKKQEFLEKKIEQELTAAKKHGTKNKRAALQALKRKKRYEKQLAQIDGTLSTIEFQREALENANTNTEVLKNMGYAAKAMKAAHDNMDIDKVDELMQDIADQQELAEEISTAISKPVGFGEEFDEDELMAELEELEQEELDKNLLEISGPETVPLPNVPSIALPSKPAKKKEEEDDDMKELENWAGSM
notes: CHMP4B (ESCRT-III subunit), full length; Captured on the chip by an anti-GST antibody; also called FL-CHMP4B; source: E. coli C41, purified (GSTrap FF, glutathione elution)
For B3, the Kd in assay [2] is 4.88 ± 0.3 µM; in assay [3], 1100 ± 100 nM.

(Values after PMC5567221, “The open architecture of HD-PTP phosphatase provides new insights into the mechanism of regulation of ESCRT function” (Scientific Reports, 2017).)
